Laboratory results published in patent publication US20120039915A1 (University of California, published 2012).

T1: CD133 (human, UniProt O43490 20-865)
T1 construct: whole, on cells; also called CD133 molecule
T1 sequence (looked up): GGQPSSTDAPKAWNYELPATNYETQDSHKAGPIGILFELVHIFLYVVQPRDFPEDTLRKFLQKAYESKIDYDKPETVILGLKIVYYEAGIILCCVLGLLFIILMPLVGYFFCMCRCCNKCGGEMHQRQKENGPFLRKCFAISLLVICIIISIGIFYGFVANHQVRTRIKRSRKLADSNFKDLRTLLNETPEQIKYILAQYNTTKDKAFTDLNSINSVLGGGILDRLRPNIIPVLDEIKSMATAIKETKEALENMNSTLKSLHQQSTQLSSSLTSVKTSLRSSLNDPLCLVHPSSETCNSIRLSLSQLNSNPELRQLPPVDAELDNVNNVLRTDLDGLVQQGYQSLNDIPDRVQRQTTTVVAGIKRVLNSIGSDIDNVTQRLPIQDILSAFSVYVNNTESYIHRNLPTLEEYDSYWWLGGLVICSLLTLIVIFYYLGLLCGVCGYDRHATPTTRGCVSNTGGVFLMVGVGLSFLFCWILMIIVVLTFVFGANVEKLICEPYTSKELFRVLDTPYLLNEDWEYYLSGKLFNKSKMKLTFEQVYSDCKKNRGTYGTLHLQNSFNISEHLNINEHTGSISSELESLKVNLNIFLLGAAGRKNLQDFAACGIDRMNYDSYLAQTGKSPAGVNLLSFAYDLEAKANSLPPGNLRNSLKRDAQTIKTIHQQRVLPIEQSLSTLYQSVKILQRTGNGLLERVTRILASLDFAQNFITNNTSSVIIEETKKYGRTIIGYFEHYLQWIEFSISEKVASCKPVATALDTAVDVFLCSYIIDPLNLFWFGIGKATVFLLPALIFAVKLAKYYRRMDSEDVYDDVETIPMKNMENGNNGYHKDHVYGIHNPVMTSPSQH

B1: GC4 scFv (scFv)
scFv: QVQLVESGGGLVQPGGSLRLSCAASGFTFGTYDMSWVRQAPGKGLEWVSGISGSGGSTYYADSVKGRFTISRDNSKNTVYLQMNSLRVEDTAVYYCARGGWYSDNWGQGTLVTVSSGGGGSGGGGSGGGGSSELTQDPAVSVALGQTVRITCQGGSLRSYYASWYQQKPGQAPLLVIYGENNRPSGIPDRFSGSSSGNTASLTITGAQAEDEADYYCHSRDSSGNHVVFGGGTKLTV
notes: Human scFv from a naive fd phage library; also called GC4 phage antibody; parental GC4 scFv; not shown: lette
B2: GB1 scFv (scFv)
scFv: QVQLVQSGGGLVKPGGSLRLSCAASGFTFSNAWMNWVRQAPGKGLEWVGRIKSKTDGGTTDYAAPVNGRFTISRDDSKNTLYLQMNSLKTEDTAVYSCTTENWGSVNWGQGTLVTVSSGGGGSGGGGSGGGGSNFMLTQPPSVSVAPGKTASLTCGYNIGTKSVHWYQQKPGQAPVVVVHDDSDRPSGIPERFSGSNSGTTATLTISRVEAGDEADYYCQAWDSISEEVVFGGGTKLTV
notes: On fd phage in the Caco-2 FACS; His-tagged soluble scFv in the immunoprecipitation; also called GB1 phage antibody; not shown: lette
B3: GB8 scFv (scFv)
scFv: QVQLVESGGGLVQPGGSLRLSCAASGFTFSNYALTWVRQAPGKGLEWVSAISGSGGSTYYADSVKGRFTISRDTSKNTLYLQMNSLRAEDTAVYYCARGGYSYGPPFDYWGQGTLVTVSSGGGGSGGGGSGGGGSSELTQDPAVSVALGQTVRITCQGDSLRSYYASWYQQKPGQAPVLVIYGKNKRPSGIPDRFSGSSSGNTASLTITGAQAVDEADYHCNSRDSSGNHVVFGGGTKLTV
notes: His-tagged soluble scFv in the immunoprecipitation; also called GB8 phage antibody; not shown: lette
B4: GH9 scFv (scFv)
scFv: QVQLQESGGGLVKPGGSLRLSCAASGFTFSSYSMNWVRQAPGQGLEWVSSISSRNSDIYYADSVRGRFTISRDNAKNSLYLQMNSLRAEDTAVYYCARDSSGYSSSPSDYWGQGTLVTVSSGGGGSGGGGSGGGGSNFMLTQPPSVSVAPGKTASLTCGGYNIGTKSVHWYQQKPGQAPVVVVHDDSDRPSGIPERFSGSNSGTTATLTISRVEAGDEADYYCQAWDSISEEVVFGGGTKLTV
notes: On fd phage in FACS; His-tagged soluble scFv in the immunoprecipitation; also called GH9 phage antibody; not shown: lette

Assays:
[1] = biological target: T2, antigen bound by the GC4 antibody on GBM tumor sphere cells (target antigen not determined); experiment: FACS on GBM tumor sphere cells at RT, MFI fitted (apparent dissociation constant)
T2 construct: also called GBM tumor spheres; GBM sphere cells
Description: FIG. 7A depicts the production of recombinant GC4 IgG. H: heavy chain. L: light chain. MW: molecular weight. […] Ctr: a non-binding human IgG1. […] FACS analysis was performed to determine binding of GC4 IgG1 (1 μg/ml) in the presence of the parental GC4 or four other scFvs (50 μg/ml each). Binding was detected by fluorescently labeled anti-human IgG antibody. Normalized mean fluorescence intensities were used to compare binding results. Error bars indicate standard deviations of duplicated experiments. *, P<0.05. […] MFI values were fitted using GraphPad. FIG. 7E depicts the binding constant of GC4 scFv to GBM tumor spheres. […] MFI values were fitted using GraphPad.
Affinity measurement: Varying concentrations of GC4 IgG1s were incubated with 10⁵ GBM cells at RT for 1 h in PBS containing 0.25% BSA. Bound IgG1s were detected by PE-conjugated goat anti-human antibody (Jackson ImmunoResearch) following incubation at RT for 30 min. Apparent dissociation constant was determined by FACS with mean fluorescence intensity (MFI) data fitted using GraphPad Prism (GraphPad Software). The apparent dissociation constant of GC4 scFv was measured similarly except that bound scFvs were detected by mouse anti-hexahistidine antibody (AbD Serotec/MorphoSys) followed by PE-conjugated goat anti-mouse antibody (Jackson ImmunoResearch).

CD133 [2] = biological target: T1, CD133; experiment: FACS, biotin-labelled GC4 scFv on Caco2 cells (CD133-high by paragraph 182); '-' means lack of significant binding
Description: For Table 1-6, biotin-labeled GC4 scFvs were tested for binding to a panel of human cell lines (all were tumor lines, except for BPH-1) by FACS. “+” indicates binding and “-” indicated lack of significant binding. Du-145 cells were derived from brain metastasis of prostate tumor.

CD133 [3] = biological target: T1, CD133; experiment: FACS, phage on Caco-2 cells
Description: FIG. 3 depicts the results of co-expression of the CD133 epitope and phage-bound antigens. FIG. 3A depicts FITC-labeled phage antibodies and biotin-labeled anti-CD133 mAb were studied on GBM sphere cells. A typical result from studies on GBMx-1 sphere cells is shown. Percentage of total cells is indicated for each quadrant. […] PE-conjugated control mouse IgG and anti-CD133 mAb were incubated with Caoa-2 cells and binding detected by FACS. […] Four tumor sphere cell-targeting phage (GB1, GB8, GH9 and GC4) were tested. Negative control: a non-binding phage. Positive control: a Caco-2 binding phage preparation. FIG. 3D depicts the results of antibody immunoprecipitation of Caco-2 lysates. Lane 1: immunoprecipitation with anti-CD133 mAb. Lane 2: immunoprecipitation with the GC4 antibody. All immunoprecipitation products were analyzed on a SDS-PAGE gel followed by Western blot with anti-CD133 antibody and horseradish peroxidase-conjugated anti-mouse secondary antibody. Arrow indicates CD133. Molecular weights (kd) are indicated.
Phage antibody binding to antigens other than CD133: Caco-2 cells that express high levels of CD133 were incubated with phage antibodies along with the positive control PE-conjugated anti-CD133 antibody at 4° C. for 1 h, washed twice with PBS, and bound phage detected by biotin-labeled anti-fd antibody followed by streptavidin-R-PE, and analyzed by FACS. For immunoprecipitation studies, 10⁵ Caco-2 cells were lysed in 1% NP40, 0.15 M NaCl, and 0.01 M sodium phosphate, pH 7.2, on ice for 2 h. Lysates were precleared and incubated with 50 μg/ml scFvs bearing a hexahistidine tag at 4° C. for 1 h, and captured onto Ni-NTA+ beads (Qiagen). […] All immunoprecipitation products were analyzed by 4-20% gradient SDS-PAGE, followed by Western blot with mouse anti-CD133 followed by horseradish peroxidase-conjugated goat anti-mouse antibody (Jackson ImmunoResearch) using ECL Plus™ (GE Healthcare).

Row | Binder | Kd [1] [nM] | binding result (CD133 [2]) | binding result (CD133 [3])
1 | B1 | 222 | no binding | –
2 | B2 | – | – | no binding
3 | B3 | – | – | no binding
4 | B4 | – | – | no binding
